Here are results for 1 molecule from publication PMC4814574.

This data set deals with C/EBPα WT (ivt) (human, UniProt P49715 1-358). The data set is described as follows: EMSA; supershift by C/EBPα antibody; 10 mM HEPES-KOH pH 7.9, 50 mM KCl, 2.5 mM MgCl2, 1 mM DTT, 10% glycerol, 1 ug BSA, 0.5 ug poly(dI-dC), 25 ul, on ice 20 min; 6% gel, 0.5x TBE, 4 °C. A general note: In EMSA bound probe runs differently from free probe, usually more slowly.
Sequence of C/EBPα WT (ivt) (P49715 whole entry): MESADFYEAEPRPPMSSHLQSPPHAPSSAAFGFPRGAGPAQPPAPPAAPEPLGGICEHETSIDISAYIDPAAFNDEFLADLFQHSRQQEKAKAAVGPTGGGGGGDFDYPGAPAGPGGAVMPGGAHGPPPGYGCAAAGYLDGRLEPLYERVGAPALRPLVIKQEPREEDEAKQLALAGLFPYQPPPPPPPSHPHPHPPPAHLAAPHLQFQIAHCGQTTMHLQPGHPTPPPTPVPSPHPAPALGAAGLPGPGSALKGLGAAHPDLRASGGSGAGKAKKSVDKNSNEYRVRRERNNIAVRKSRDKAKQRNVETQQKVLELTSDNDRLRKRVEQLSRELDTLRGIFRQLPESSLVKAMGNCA

B1: G-CSF receptor promoter C/EBP site oligonucleotide (dsDNA)
DNA 1: CTAGGGCTTGCGCAATCTATATTCG
DNA 2: CGAATATAGATTGCGCAAGCCCTA
B1: the binding result is recorded as “binds”.
